Values quoted from earlier work as cited in paper PMC4621241.

Biological target: MetQ (Escherichia coli) (UniProt P28635)
Sequence (P28635 23-271): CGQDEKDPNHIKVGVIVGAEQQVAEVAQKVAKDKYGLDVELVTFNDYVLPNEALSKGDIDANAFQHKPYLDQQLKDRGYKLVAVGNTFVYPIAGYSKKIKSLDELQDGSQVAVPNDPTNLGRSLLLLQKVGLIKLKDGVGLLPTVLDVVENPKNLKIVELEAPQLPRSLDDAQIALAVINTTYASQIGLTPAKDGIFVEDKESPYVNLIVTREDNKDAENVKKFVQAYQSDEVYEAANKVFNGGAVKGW

Chain of MetNI (P30750 whole entry): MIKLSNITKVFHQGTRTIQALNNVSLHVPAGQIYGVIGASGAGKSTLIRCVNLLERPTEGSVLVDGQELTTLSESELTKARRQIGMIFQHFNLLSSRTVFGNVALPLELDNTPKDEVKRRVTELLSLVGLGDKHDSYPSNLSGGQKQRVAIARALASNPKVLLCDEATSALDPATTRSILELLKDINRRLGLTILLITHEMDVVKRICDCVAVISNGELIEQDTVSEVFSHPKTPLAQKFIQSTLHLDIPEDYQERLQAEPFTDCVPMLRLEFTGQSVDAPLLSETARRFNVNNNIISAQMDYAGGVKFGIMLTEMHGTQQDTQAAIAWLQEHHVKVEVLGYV
Chain of MetNI (P31547 whole entry, further chain): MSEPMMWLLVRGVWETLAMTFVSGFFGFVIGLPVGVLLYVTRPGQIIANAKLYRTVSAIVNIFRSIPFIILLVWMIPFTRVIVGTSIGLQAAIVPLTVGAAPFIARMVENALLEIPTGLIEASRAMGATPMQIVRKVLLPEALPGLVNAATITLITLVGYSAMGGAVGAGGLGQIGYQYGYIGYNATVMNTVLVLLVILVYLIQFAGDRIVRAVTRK

Kd: 74 µM
Substance: MetNI (from UniProt P30750)
